These results are taken from PMC10397247.

Where two headings read alike, the source gives them in different places.

The target in assay [1] is T1, 4H72-bH.
T1 chain: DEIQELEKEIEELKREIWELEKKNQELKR
The experiment in a line: two-hybrid library CCNG1.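 Note: natural log of median RNA to DNA barcode read ratio; higher means stronger binding.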

Assay [2] addresses T2, 4H457-bH.
T2 chain: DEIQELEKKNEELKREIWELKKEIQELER
The experiment in a line: two-hybrid library CCNG1.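 Note: natural log of median RNA to DNA barcode read ratio; higher means stronger binding.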

In assay [3] the target is T3, 4H797-bH.
T3 chain: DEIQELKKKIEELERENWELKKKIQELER
Nature of the assay: two-hybrid library CCNG1.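 Note: natural log of median RNA to DNA barcode read ratio; higher means stronger binding.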

Assay [4] has as its target T4, 4H953-bH.
T4 chain: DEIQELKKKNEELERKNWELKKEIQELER
The experiment in a line: two-hybrid library CCNG1.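 Note: natural log of median RNA to DNA barcode read ratio; higher means stronger binding.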

Assay [5] has as its target T5, 4H855-bH.
T5 chain: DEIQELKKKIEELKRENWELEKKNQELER
The experiment in a line: two-hybrid library CCNG1.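 Note: natural log of median RNA to DNA barcode read ratio; higher means stronger binding.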

Assay [6] has as its target T6, 4H3926-bH.
T6 chain: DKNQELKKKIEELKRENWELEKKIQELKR
The experiment in a line: two-hybrid library CCNG1.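 Note: natural log of median RNA to DNA barcode read ratio; higher means stronger binding.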

Assay [7] addresses T7, 4H4073-bH.
T7 chain: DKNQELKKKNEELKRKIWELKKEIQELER
Nature of the assay: two-hybrid library CCNG1.

Assay [8] addresses T8, 4H575-bH.
T8 chain: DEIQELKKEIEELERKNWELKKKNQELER
Nature of the assay: two-hybrid library CCNG1.

In assay [9] the target is T9, 4H908-bH.
T9 chain: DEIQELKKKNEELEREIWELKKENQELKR
The experiment in a line: two-hybrid library CCNG1.

Assay [10] has as its target T10, 4H780-bH.
T10 chain: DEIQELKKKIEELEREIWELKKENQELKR
Nature of the assay: two-hybrid library CCNG1.

Assay [11] addresses T11, 4H967-bH.
T11 chain: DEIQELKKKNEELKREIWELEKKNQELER
The experiment in a line: two-hybrid library CCNG1.

For assay [12], the target named is T12, 4H3782-bH.
T12 chain: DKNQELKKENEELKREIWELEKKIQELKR
The experiment in a line: two-hybrid library CCNG1.

For assay [13], the target named is T13, 4H3855-bH.
T13 chain: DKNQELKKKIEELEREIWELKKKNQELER
The experiment in a line: two-hybrid library CCNG1.

The target of assay [14] is T14, 4H3427-bH.
T14 chain: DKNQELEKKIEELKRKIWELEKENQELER
The experiment in a line: two-hybrid library CCNG1.

Assay [15] addresses T15, 4H4001-bH.
T15 chain: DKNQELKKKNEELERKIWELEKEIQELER
Nature of the assay: two-hybrid library CCNG1.

Assay [16] has as its target T16, 4H346-bH.
T16 chain: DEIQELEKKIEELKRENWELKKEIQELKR
The experiment in a line: two-hybrid library CCNG1.

For assay [17], the target named is T17, 4H780-bN.
T17 chain: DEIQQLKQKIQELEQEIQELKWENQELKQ
The experiment in a line: two-hybrid library CCNG1.

Assay [18] concerns the target T18, 4H883-bH.
T18 chain: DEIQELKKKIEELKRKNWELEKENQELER
Nature of the assay: two-hybrid library CCNG1.

Assay [19] addresses T19, 4H968-bH.
T19 chain: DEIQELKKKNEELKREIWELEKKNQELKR
Nature of the assay: two-hybrid library CCNG1.

The target in assay [20] is T20, 4H717-bH.
T20 chain: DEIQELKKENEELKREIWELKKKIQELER
Nature of the assay: two-hybrid library CCNG1.

For assay [21], the target named is T21, 4H687-bH.
T21 chain: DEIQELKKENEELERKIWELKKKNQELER
Nature of the assay: two-hybrid library CCNG1.

Assay [22] concerns the target T22, 4H918-bH.
T22 chain: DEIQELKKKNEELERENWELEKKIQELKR
The experiment in a line: two-hybrid library CCNG1.

The target in assay [23] is T23, 4H683-bH.
T23 chain: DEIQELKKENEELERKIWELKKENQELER
The experiment in a line: two-hybrid library CCNG1.

Assay [24] has as its target T24, 4H568-bH.
T24 chain: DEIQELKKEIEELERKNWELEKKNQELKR
Nature of the assay: two-hybrid library CCNG1.

For assay [25], the target named is T25, 4H607-bH.
T25 chain: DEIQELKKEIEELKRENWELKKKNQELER
The experiment in a line: two-hybrid library CCNG1.

Assay [26] addresses T26, 4H754-bH.
T26 chain: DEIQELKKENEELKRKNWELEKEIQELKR
Nature of the assay: two-hybrid library CCNG1.

For assay [27], the target named is T27, 4H454-bH.
T27 chain: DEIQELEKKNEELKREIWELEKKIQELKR
The experiment in a line: two-hybrid library CCNG1.

For assay [28], the target named is T28, 4H850-bH.
T28 chain: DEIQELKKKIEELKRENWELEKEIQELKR
The experiment in a line: two-hybrid library CCNG1.

Assay [29] has as its target T29, zCON9_D.
T29 chain: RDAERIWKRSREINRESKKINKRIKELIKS
The experiment in a line: two-hybrid library CCmax.

The target of assay [30] is T30, zCON9_B.
T30 chain: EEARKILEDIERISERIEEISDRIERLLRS
Nature of the assay: two-hybrid library CCmax.

The target of assay [31] is T31, 4H3112-bH.
T31 chain: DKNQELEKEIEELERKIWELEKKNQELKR
The experiment in a line: two-hybrid library CCNG1.

Assay [32] has as its target T32, 4H953-bA.
T32 chain: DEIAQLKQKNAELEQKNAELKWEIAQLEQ
Nature of the assay: two-hybrid library CCNG1.

Regarding DKNQELEKKIEELKRKIWELEKENQELER [4H3427-bH], the interaction score is -0.0186 in assay [1]; -0.153 in [2]; -0.726 in assay [3]; -2.3 in [4]; -0.0661 in [5]; -0.169 in assay [6]. Also, the interaction score is 0.194 in assay [7]; 1.53 in [8]; -0.797 in assay [9]; 0.188 in [10]; -1.41 in [11]; -0.106 in [12]. For the same molecule, the interaction score in [13] is 0.0459; in assay [14] it was 1.13; in [15], 0.717; in assay [16], -1.08; in assay [17] it was -0.425; in [18], -1.42. Besides, the interaction score in assay [19] is -0.828; in assay [20] it was -0.417; in [21], -0.309; in assay [22], -0.345; in assay [23], -0.937; in assay [24], -1.66. Further, the interaction score is -1.37 in assay [25], -0.851 in assay [26] and -0.546 in [27].

For DEIQELEKKIEELKRENWELKKEIQELKR [4H346-bH], the interaction score was 0.311 in [2]; 0.329 in assay [3]; 0.155 in assay [4]; 0.532 in assay [5]; 1.28 in [6]; -0.154 in assay [7]. In addition, the interaction score was -0.18 in assay [8]; 0.0507 in assay [10]; -3.53 in assay [28]; 0.99 in [16]; -0.466 in [19]; -3.17 in [22]. The interaction score is -1.17 in assay [23] and -0.0538 in assay [26].

As for EEARKILEDIERISERIEEISDRIERLLRS [zCON9_B], the interaction score in [29] (mean of both orientations) is -1.44; in assay [30], 2.

With PKKEAEELAEESEELHDRSEKLHERAEQ [zCON9_A], the interaction score was -2.12 in [29] and -2.01 in assay [30].

Consider DKIQELKKKNEELKREIWELEKEIQELKR [4H3010-bH], for which the interaction score in [2] is 0.658; in assay [3], -1.11; in assay [4] it was 0.505; in [5], -0.95; in assay [6] it was 0.68; in assay [7] it was 0.581. Moreover, the interaction score in assay [8] is -2.51; in assay [10], -0.427; in [14] it was 0.496; in assay [31], -1.68; in assay [16], -0.345; in assay [19], 0.0625. Besides, the interaction score is -2.71 in assay [22], 0.161 in assay [23], -0.817 in assay [32] and -1.06 in assay [26].
